According to US20060058231A1 (Xencor, published 2006):
Numbering of substitutions follows the chain as printed.

B1: BMP-7 variant I86K (ligand)
chain: STGGKQRSQNRSKTPKNQEALRMASVAENSSSDQRQACKKHELYVSFRDLGWQDWIIAPEGYAAYYCEGECAFPLNSYMNATNHAKVQTLVHFINPETVPKPCCAPTQLNAISVLYFDDSSNVILKKYRNMVVRACGCH
notes: In conditioned media; numbering on mature BMP-7
B2: BMP-7 variant L90H (ligand)
chain: B1 chain with K86I, L90H
notes: as for B1
B3: BMP-7 variant L21D (ligand)
chain: B1 chain with L21D, K86I
notes: as for B1
B4: BMP-7 variant M23N (ligand)
chain: B1 chain with M23N, K86I
notes: as for B1
B5: BMP-7 variant N76D (ligand)
chain: B1 chain with N76D, K86I
notes: as for B1
B6: BMP-7 variant Q53E (ligand)
chain: B1 chain with Q53E, K86I
notes: as for B1
B7: BMP-7 variant K39N (ligand)
chain: B1 chain with K39N, K86I
notes: as for B1
B8: BMP-7 variant L21G (ligand)
chain: B1 chain with L21G, K86I
notes: as for B1
B9: BMP-7 variant L21R (ligand)
chain: B1 chain with L21R, K86I
notes: as for B1
B10: BMP-7 variant N76S (ligand)
chain: B1 chain with N76S, K86I
notes: as for B1
B11: BMP-7 variant L21N (ligand)
chain: B1 chain with L21N, K86I
notes: as for B1
B12: BMP-7 variant N76T (ligand)
chain: B1 chain with N76T, K86I
notes: as for B1
B13: BMP-7 variant N76Y (ligand)
chain: B1 chain with N76Y, K86I
notes: as for B1
B14: BMP-7 variant K39A (ligand)
chain: B1 chain with K39A, K86I
notes: as for B1
B15: BMP-7 variant M23S (ligand)
chain: B1 chain with M23S, K86I
notes: as for B1
B16: BMP-7 variant I94Q (ligand)
chain: B1 chain with K86I, I94Q
notes: as for B1
B17: BMP-7 variant I86Q (ligand)
chain: B1 chain with K86Q
notes: as for B1
B18: BMP-7 variant Q53D (ligand)
chain: B1 chain with Q53D, K86I
notes: as for B1
B19: BMP-7 variant L90E (ligand)
chain: B1 chain with K86I, L90E
notes: as for B1
B20: BMP-7 variant L90T (ligand)
chain: B1 chain with K86I, L90T
notes: as for B1
B21: BMP-7 variant L90P (ligand)
chain: B1 chain with K86I, L90P
notes: as for B1
B22: BMP-7 variant K126Q (ligand)
chain: B1 chain with K86I, K126Q
notes: as for B1
B23: BMP-7 variant L90G (ligand)
chain: B1 chain with K86I, L90G
notes: as for B1
B24: BMP-7 variant N76A (ligand)
chain: B1 chain with N76A, K86I
notes: as for B1
B25: BMP-7 variant K126E (ligand)
chain: B1 chain with K86I, K126E
notes: as for B1
B26: BMP-7 variant K39S (ligand)
chain: B1 chain with K39S, K86I
notes: as for B1

Legend:
Test in all cases: ELISA-like plate assay, captured BMP-7 from conditioned media, receptor-Fc detection
[1] = target: T1, ActRIIa receptor-Fc fusion (UniProt P27037 20-134, limits assumed)
T1 construct: BMP receptor-Fc fusion used at 5 ug/mL

[2] = target: T2, BMPRII receptor-Fc fusion (UniProt Q13873 27-151, limits assumed)
T2 construct: BMP receptor-Fc fusion used at 5 ug/mL
T2 sequence (looked up): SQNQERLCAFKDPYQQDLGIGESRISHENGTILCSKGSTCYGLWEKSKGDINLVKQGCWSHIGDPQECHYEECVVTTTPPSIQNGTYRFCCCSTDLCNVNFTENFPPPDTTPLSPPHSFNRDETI

[3] = target: T3, BMPRIa receptor-Fc fusion (UniProt P36894 24-152, limits assumed)
T3 construct: also called ALK-3

[4] = target: T4, BMPRIb receptor-Fc fusion (UniProt O00238 14-126)
T4 construct: BMP receptor-Fc fusion used at 5 ug/mL; also called ALK-6
T4 sequence (looked up): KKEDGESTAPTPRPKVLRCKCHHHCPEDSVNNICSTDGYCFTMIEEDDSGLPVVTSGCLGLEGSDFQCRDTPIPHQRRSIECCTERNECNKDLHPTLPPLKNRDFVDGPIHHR

T1 sequence (P27037 20-134 limits assumed): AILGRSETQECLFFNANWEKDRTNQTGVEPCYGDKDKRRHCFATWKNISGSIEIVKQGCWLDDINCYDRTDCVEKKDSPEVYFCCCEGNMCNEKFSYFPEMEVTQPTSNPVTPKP
T3 sequence (P36894 24-152 limits assumed): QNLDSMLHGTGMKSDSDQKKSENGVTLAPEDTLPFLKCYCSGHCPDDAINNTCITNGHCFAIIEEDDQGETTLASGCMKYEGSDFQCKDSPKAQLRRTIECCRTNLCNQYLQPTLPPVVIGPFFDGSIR

| Binder | ActRIIa binding (relative to wild type = 1.0) [1] | BMPRII binding (relative to wild type = 1.0) [2] | BMPRIa binding (relative to wild type = 1.0) [3] | BMPRIb binding (relative to wild type = 1.0) [4] |
| --- | --- | --- | --- | --- |
| B1 | 0.97 relative to wild type | 1.02 relative to wild type | 0.81 relative to wild type | 0.69 relative to wild type |
| B2 | 0.47 relative to wild type | 0.2 relative to wild type | 0.36 relative to wild type | 0.55 relative to wild type |
| B3 | 0.94 relative to wild type | 0.94 relative to wild type | 1.01 relative to wild type | 1.52 relative to wild type |
| B4 | 0.94 relative to wild type | 0.9 relative to wild type | 0.98 relative to wild type | 1.36 relative to wild type |
| B5 | 1.13 relative to wild type | 0.87 relative to wild type | 0.84 relative to wild type | 0.8 relative to wild type |
| B6 | 0.98 relative to wild type | 0.72 relative to wild type | 2.3 relative to wild type | 2.78 relative to wild type |
| B7 | 1.08 relative to wild type | 0.99 relative to wild type | 1.98 relative to wild type | 1.63 relative to wild type |
| B8 | 1.5 relative to wild type | 2.3 relative to wild type | 2.53 relative to wild type | 3.65 relative to wild type |
| B9 | 0.84 relative to wild type | 0.66 relative to wild type | 0.83 relative to wild type | 1.01 relative to wild type |
| B10 | 0.99 relative to wild type | 0.98 relative to wild type | 0.76 relative to wild type | 0.85 relative to wild type |
| B11 | 1.03 relative to wild type | 1.73 relative to wild type | 1.57 relative to wild type | 2.81 relative to wild type |
| B12 | 1.11 relative to wild type | 0.97 relative to wild type | 0.94 relative to wild type | 0.98 relative to wild type |
| B13 | 0.92 relative to wild type | 0.6 relative to wild type | 0.46 relative to wild type | 0.46 relative to wild type |
| B14 | 1.06 relative to wild type | 1.51 relative to wild type | 3.48 relative to wild type | 2.86 relative to wild type |
| B15 | 2.2 relative to wild type | 2.41 relative to wild type | 0.88 relative to wild type | 1.09 relative to wild type |
| B16 | 1.1 relative to wild type | 1.32 relative to wild type | 0.74 relative to wild type | 0.74 relative to wild type |
| B17 | 0.96 relative to wild type | 1.07 relative to wild type | 0.66 relative to wild type | 0.82 relative to wild type |
| B18 | 0.89 relative to wild type | 1.01 relative to wild type | 2.2 relative to wild type | 3.74 relative to wild type |
| B19 | 0.24 relative to wild type | 0.18 relative to wild type | 0.2 relative to wild type | 0.27 relative to wild type |
| B20 | 0.66 relative to wild type | 0.29 relative to wild type | 0.48 relative to wild type | 0.64 relative to wild type |
| B21 | 0.75 relative to wild type | 0.17 relative to wild type | 0.46 relative to wild type | 0.52 relative to wild type |
| B22 | 0.81 relative to wild type | 0.28 relative to wild type | 0.46 relative to wild type | 0.57 relative to wild type |
| B23 | 0.87 relative to wild type | 0.28 relative to wild type | 0.55 relative to wild type | 0.65 relative to wild type |
| B24 | 0.96 relative to wild type | 0.95 relative to wild type | 0.79 relative to wild type | 0.81 relative to wild type |
| B25 | 0.26 relative to wild type | 0 relative to wild type | 0.23 relative to wild type | 0.22 relative to wild type |
| B26 | 1.04 relative to wild type | 1.37 relative to wild type | 2.77 relative to wild type | 2.23 relative to wild type |
